# Measurements from the supplement of paper PMC12636428.
# Test system: Saccharomyces cerevisiae
# Assay: transcriptional activation domain activity (GFP:mCherry ratio, weighted mean of sorted bins, harmonized to initial dataset scale) (arbitrary fluorescence ratio units); higher = stronger transcriptional activation
# Conditions: beta-estradiol 1 µM; induction time 4 h
# Outline: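 Each value is an activation activity: the read-weighted mean of bin median fluorescence, averaged across barcodes, then mapped linearly to the initial dataset scale. The tiles, fused to an estradiol-inducible synthetic transcription factor, sat at the yeast URA3 locus in GFP-reporter diploids. Cells spent 4 hours at 30 °C in SC with 1 uM beta-estradiol before sorting into 8 GFP:mCherry bins, and tiles below 50 reads were removed.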
row,Sequence,transcriptional activation domain activity
1,LWFFFKGMDGMLHPPCSTWTFFFAKVNLYTWLRTFMKIVFVFMGLLHAIIIFW,60200
2,DPNSPLDGDVDELRSREIAAKAVTGTLILLLKWLKLSHVLKFEYVTQLLLDLN,57100
3,MKILSFLCTYSLSFTLTIPNSLLSFLRTLFNFTNNYKYMILLLLGYLCLIGLF,35600
4,SSEYEIGRPSEEEVTMTRMLDKVLRRSDAVDKESLCILAGQRVWHLRLTLHCL,45500
5,MILTSHLSFILFLFLFLFPFSFSSFLPFYLHYLFILPSILIFPSPPFLPSLFL,51200
6,KYAYGCDELIFNPLVHWWKMGPINKQLRTFVWSDAPVHYKVTMLSYMFSYYGI,50100
7,IMGNLVVLLWHTKVDNIESYLADLSRCIEDFLNVTAQCAPSILILKPKFHFLL,56300
8,MARCYRLVMCFPFSLCFEYSALILTCSFFSPFIPFRLWCHAVPCGSGVFLFLH,65700
9,TLTLLLRERGYELFLLVHFIFVLYVNFLSCLSVRSPLCIVYYGAWPSMIVWGI,64600
10,GTAHHHDPNDPKRPRACEACRGLKVRCEPDPTNPNPDGPCKRCAKAGRACLVT,< 6570
11,EEGASQRANQRGKGEEGASQTANQRGKGEEGNQRRKGRKGAKGGRGRKGAKGG,28500
12,DQIYIYQTPRWLCYECLVAMFTMFTIRLVYFWSLHVLNHLLTYKTFLFFFLSC,47400
13,MWTSLGCYSCLLCLLLHVVYVPSLLVPSQHPFLSSCLGAVGLTFTWMICCFFP,56500
14,DNPEQLMKVFLSRNLISTGVIYSEHKCNMMVRLVWLFLCFLHRKSVLPEIRGL,59500
15,ESKDKSKEGKSKRGDKTLDTKGKSEEENKKGGDKKDEKKKDEKKKEEEEKEKA,25400
16,HCLTFHQTSKLTHILLTYRQSILVTVYSHLLLLDHSSQVWWRWMNIFFTLVIW,69500
17,MIVLCASFFYILSSLSLFFFFLTLPIMHFLPFSRLFIFSCFLFPLYLFTSFFL,31000
18,QTIPKNQFASRVWTYMDPEVSRHLIDHYLGSIDLSRLELAVLALKCLYSRHTT,53900
19,LLSVCVGKNCTVPSPLNSFDRSFYPIGCTNLSNDIPGYSFLNDAMSEIHTFGD,82000
20,MIYLASFLLLTVDSSIWSVPITIFIPYTIYLFPPHTYICVLFARILIFHLLSF,61200
21,MRPLSWRLWRTGDSNRELLSHFLFYLGLFFFFREWLFLVLFFLFLLLLLPGVR,26600

row,Sequence,transcriptional activation domain activity
1,MVFGGIFFQLRGCAVGWSLGYSVSCFFLFFLFVFYAVSFLVWSGCGFLFSFFF,62700
2,KKAEKQEGEDKEKEEKPKPSRGKKRKESEEPNGASAEGEEEPVAKKAKPASKA,49000
3,FLPCDPYFLVSFFIQFFLLGFPFCLPLLSFLLLLLSFFHLSLEVFSLLLGDFH,59400
4,MPLCSLHTYKGGWLWLWWLRWWWRNNNCEALNFSFFFFFFFFLFLFRGVDGVL,66000
5,MINFWLFIFLSSSLLFLPFFFLYIFFNYYYFFLFTQYIMVTWFFENYQFANAW,56200
6,PELIGFCCFSMRFFVFIDLLGTLILPATVVYLIYLIIVVATRASAFPQIAIIM,59400
7,LLLFIHSLIHGTMLLFWRWPMLSILQVPMHPFLLLVCFNLFSQSVPPVLVSAA,59500
8,MPAYLDKPLTFLAFDWCVTFFFFCCFFLLILFLSLLVINVIVLCLLPLISLVS,< 6570
9,MYYCLFSFLFFLFAFPCVFLLLFTVFFSPYFFFAGFFFYLSLSLLVCVWTIDE,41600
10,GGKKKKAAAAVLETETEGEGEKENKSAEKGKAGSNGGGKKGKGKKGANGVANG,23400
11,AAPAASKAAPAAASPEKKEKAKPGKKEREAAKAAAAAAPPKASASSSSAPEQA,18300
12,MLNNSSSFFVVVPIIYTLIHYLSMLFLFGCLIHLFPYIPTCILQLLLFLLYLY,44500
13,FELHIPYHFVVVNTGKKLFQIWGLGKIDFARDFPFLQGARGSLTRTIIVILRN,52300
14,HAGTMESHPHTNIHEELKEFLSGDLIEAEDNAKLMFGDDNSNPADYLLEFGSG,72500
15,LCTQLLVKILVFSAYRFSLTVLNLVSYLTIDARMVSIVVLGKSLFPLLVFVLL,41000
16,MVLISFKSISPITSPILPTYHHHHHSFHHSIHHLLLIYYKLILLFLFFLIFYL,46800
17,MRFWFLYLFLLFGIGWVGLALLYYYRIFCLFLCNIRILFLLVCFISTHSIIYS,46200
18,KPHHKWIIPTPFASHAFHPVDGYLQSVPYHLFIFLFPMHQYVYLGLFVAVNFW,72400
19,MTTNRDKAFFFFFNCERPIFNFFFCPFFLFFYIPFYFPYPYFFSFSYFSFLYL,78200
20,HFPKRSFRHWVGLMFFSFLTCCTLLLQFRAAVTLTVNSHLPWITRSGLWYLVL,68800
21,HTVGGKPSELMRSSEEDEDKICGAIGCDDTESAPSNACGRCKRVYYCSRACQT,42800

row,Sequence,transcriptional activation domain activity
1,ALRRRTTDDGRLPREDLVHSEISVAVVSSPLSFASRFSPTPAVAVLVTALPVV,80600
2,RARAHRPKRGGRGRGRGTGTNAREGGGREEGKKKNRKKKTKTKTKTKTKTKKR,36600
3,RMLFPNVQELHWEAQNFEKSPLLNMFMGLHLTEIYFTFSAGSYAQMTWIPIMY,33300
4,RRGSKGKQRASGNRGPGGSGGSRGWGQRTASHGKAGKGTGKRSGSNSGSHGES,37100
5,TGTEQKKGIGGRRRRSKQASKQGSRPVCGHACACVCLCVPCLSCVCVSVLHLL,67800
6,PARGNKDVFFIMFHPSEEFLFNILSLWLRACNPNCRIFHSHEAGSWKQYQKET,45000
7,DHSDKIDKKRKDEDDSKRSKSDRKSKRDEERFSDSDKGARLDKDHSKSSRSKS,43500
8,GESDDEGGGGRKRKKAKVEPAPKVKVERKPAAPVQEGEKKKRGRPRKVAPLPA,24400
9,RLCYERFILCLICLPILYLPLVLILGIFIALSLTYIIFISFDPIISSMWYLAL,68400
10,IELSRNFVNVPDFVCFFNLPDNLSVLYTLEIVYFGQLLLFHSIIYALVLIRFW,47900
11,MIPGVLLECSFVEFLSFLLDLLLLTLLWIMRLMMMLLLPLFLLLLLIFVYCCV,39500
12,VAACLVNWDMKAAFVCVQSGNLKGVQALSALLGYVQIYYVQWLCAIVIAILYI,60000
13,MPPAPKSPQARRAGAPKAKGAVRAKSGCYTCRIRRKKCDEQMNPEGSCSTCVR,37400
14,FFFSGTALRGIYVGCLVFLVLLWFLHMFFILFTFPFFFVLVWVLLFFRELHFA,50600
15,MWGRWVGWSLIFLELYLDHLILQFIPPTRFIVTLFFFFSFLFIWYFCLLSLSL,28800
16,GQATLRLLKESGRQSHAPIFIVGAFDGNRRQIGEGMGSSIKMAEFRAAEDALR,26300
17,EPESKPAPARGAQPAQRGNFRGGRGGHRGARGGRGRGGYQERPRRQEEEKPTK,9620
18,VEAPAEEQAEAPKTKRGRKAAEPAPVEPKEAEAPEPAAKPKRGRKAVSEEPME,42100
19,GSFVGFLFCFVDFGFWILEFSFFFSWMPAGVLSFWMVASQWGKADDIFFSLFF,50600
